These results are taken from paper PMC11074299.

The assay deals with Casp-8^tDED_F122G/L123G mutant (human) (UniProt Q14790). The assay can be described thus: crystal structure; FA^FuL_H9G-C8^FGLG-CF^H7G complex; proteins individually expressed in E. coli, complex co-purified by Ni-NTA and SEC (80 mM NaCl, 20 mM Tris pH 8.0); hanging drop, 20 °C; MR-SAD; 3.1 Å; one 1:5:4 complex per asymmetric unit; FADD DD not visible.

Usually stoichiometry N stands for a count of units in the complex or per binding partner.

For the substance “Casp-8^tDED_F122G/L123G mutant (from UniProt Q14790 1-185) (domain or fragment)”, the stoichiometry N was found to be 5.
